# “And” between values parts separate entries of the source, which are not always exact repeats. Equal entries are not always repeated.
# Experiments:
# [1] = test system: acute myocardial injury caused by viral (Coxsackie B3) infection in mice; assay: Myocardial pathologic score, mice infected with Coxsackie B3 virus; type: in vivo, BALB/C mice; design: key: 0-4 score: 0 = 0%, 1 = 25%, 2 = 50%, 3 = 75%, 4 = 100% lesion area
# Experimental: The survived mice were killed through dislocating the cervical spine, aseptic thoracotomy was performed and the heart extirpated, heart weight measured and put the myocardium into formaldehyde for fixation, embedded in paraffin, consecutive section made and pathologic examination performed, observed inflammatory cells infiltration of the myocardium, degeneration and necrosis. Based on the Principle of New Drug Evaluation Guideline, pathologic scoring criteria was defined as follow: • Score 0: lesion area accounting for 0%; • Score 1: lesion area accounting for 25%; • Score 2: lesion area accounting for 50%; • Score 3: lesion area accounting for 75%; • Score 4: lesion area accounting for 100%; • Scoring could be performed between score 1 and score 2 or between score 2 and score 3, e.g. when lesion area was 80% was scored as score 3.2, 7.3.3.4 Observation On Survival Of Mice
# [2] = test system: toxic myocarditis caused by Adriamycin in rat; assay: Hemodynamics index, Adriamycin rat model; type: in vivo, SD rat; conditions: rat, Adriamycin model
# Experimental: (§1) rhNRG-1 β was injected into the tail vein within 24 hours after the first injection of Adriamycin. During the experiment, animal survival was dynamically monitored, heart function indexes (maximal rate of pressure increase within left ventricle, […], maximal rate of pressure decrease within left ventricle, −dp/dt, systolic end pressure of left ventricle LVPmax, diastolic end pressure of left ventricle LVPmin) were monitored at the 5th week. Section was made from the heart tissue and pathological changes examined.
# Hemodynamics index such as carotid artery pressure, intra-ventricular pressure. dp/dt was measured with six lead physiology recorder. Major procedure: separate the right carotid artery, ligate its distal end and block its proximal end with arterial clamps, 20 G arteriovenous indwelling needle was inserted into the carotid artery, took out the medal stylet, loosened the artery clamps, push the plastic trocar further into appropriate depth, indwelled for 10 minutes, observed the wave style recorded by the physiology recorder, after it was stable, then recorded the carotid artery pressure and push the trocar further into the left ventricle, kept in place for 15 minutes, after it was stable, then recorded the dp/dt, −dp/dt, LVPmax and LVPmin.
# [3] = test system: Rhesus; assay: Serum antibody detection (ELISA) in long-term toxicity study; type: in vivo; conditions: 7.5, 15, 75 μg/kg/d iv, 1, 2, 3-week and end of convalescent period
# Experimental: Sealing: Wash the plate 5 times, prepare 5% evaporated skimmed milk with cleaning solution.
# Dilute the scheduled for testing serum; dilute the sample with sample dilution solution, dilute gradient is 1:100.
# Add sample: Wash the sealed enzyme labeled plate for 3 times, add scheduled for testing serum, 100 μl/hole, 37° C. for 1 hour.
# Add enzyme labeled antibody: Wash the plate 5 times, add 1:1000 diluted HRP labeled rat anti-monkey immunoglobulin, […], 37° C. for 1 hour.
# Substrate: Wash the plate 5 times, add newly prepared substrate operating fluid, 100 μl/hole, 37° C. for 10 minutes.
# Ending: add 2N H2SO4, 50 μl/hole to end the reaction.
# Odd value detection: Positive result was defined as OD value of testing sample was 2.1 time greater than that of the negative control (serum was 1:100 diluted).
# [4] = test system: toxic myocarditis caused by Adriamycin in rat; assay: Myocardial pathologic scoring, Adriamycin rat model; type: in vivo, SD rat; conditions: Adriamycin model
# Experimental: Heart was extirpated after thoracotomy (auricle should be reserved), the heart weight was measured after dried with absorbent paper, ratio of heart weight/body weight calculated; outer diameter of the heart was measured at ½ site of the vertically standing heart; medium part of the left ventricle was crosswise cut open, maximal thickness of free wall of the left ventricle measured; the heart was fixed with 10% formaldehyde, paraffin embedded and HE stained, observation of the myocardial structure carried out under optic microscope, give out pathologic score.
# Scoring could be performed between grade 1 and grade 2 or between grade 2 and grade 3, e.g. grade 1.5, grade 2.5 etc. 6.3.3.3 Determination of Hemodynamics Index
# [5] = test system: toxic myocarditis caused by Adriamycin in rat; assay: Survival rate, Adriamycin caused toxic myocarditis rat model; type: in vivo, SD rat
# Experimental: rhNRG-1β was injected into the tail vein within 24 hours after the first injection of Adriamycin, the injection of rhNRG-1 β was carried out once daily for 10 days. Dosage was adjusted according to the body weight, volume of the drug administered was 0.2 ml/100 g.
# Based on the <<Guidance Principle of New Drug Preclinical Experiment>>, 3.3 mg/kg of Adriamycin was injected into the tail vein, once per week for consecutive 4 injections, establishing Adriamycin caused toxic myocarditis rat model.
# as §1
# Situation of survival was recorded weekly and the survival rate of the various experimental groups was calculated. Survival rate (%)=survival animal number/number of experimental animals×100.
# [6] = test system: heart failure in rat caused by ligation of coronary artery; assay: Echocardiography heart function, heart failure by ligation of coronary artery; type: in vivo, SD rat
# [7] = 10 μg/kg iv qd × 10 d, (I), listed as rhNRG-1β
# [8] = 20 μg/kg iv qd × 10 d, (I), listed as rhNRG-1β
# [9] = 40 μg/kg iv qd × 10 d, (I), listed as rhNRG-1β
molecule,measurement,setting,value
"rhNRG-1 β: Recombinant human neuregulin fragment of 61 amino acid (SEQ ID NO:4), 3 disulfide bonds, expressed in E. coli (protein, listed as Homo sapiens, disulfide (positions not given here)) SHLVKCAEKEKTFCVNGGECFMVKDLSNPSRYLCKCPNEFTGDRCQNYVMASFYKAEELYQ",Pathologic score Mean ± SD,"[1]; 7.5 μg/kg iv qd × 5, (I)",1.52 ± 0.74
same,Pathologic score Mean ± SD,"[1]; 7.5 μg/kg iv qd × 5, (II)",1.34 ± 1.16
same,Pathologic score Mean ± SD,"[1]; 15 μg/kg iv qd × 5, (I)",0.73±0.58
same,Pathologic score Mean ± SD,"[1]; 15 μg/kg iv qd × 5, (I), listed as rhNRG-1β",0.73 ± 0.58
same,Pathologic score Mean ± SD,"[1]; 15 μg/kg iv qd × 5, (II)",0.57 ± 0.58
same,Pathologic score Mean ± SD,"[1]; 30 μg/kg iv qd × 3, (I)",0.33±0.155
same,Pathologic score Mean ± SD,"[1]; 30 μg/kg iv qd × 3, (I), listed as rhNRG-1β",0.33 ± 0.155
same,Pathologic score Mean ± SD,"[1]; 30 μg/kg iv qd × 3, (II)",0.55 ± 0.476
same,Pathologic score Mean ± SD,"[1]; 30 μg/kg iv qd × 5, (I)",0.56±0.47
same,Pathologic score Mean ± SD,"[1]; 30 μg/kg iv qd × 5, (I), listed as rhNRG-1β",0.56 ± 0.47
same,Pathologic score Mean ± SD,"[1]; 30 μg/kg iv qd × 5, (II)",0.23 ± 0.26
same,Pathologic score Mean ± SD,"[1]; 30 μg/kg iv qd × 5, Example 5 (I)",0.11±0.14
same,Pathologic score Mean ± SD,"[1]; 30 μg/kg iv qd × 5, Example 5 (I), listed as rhNRG-1β",0.11 ± 0.140
same,Pathologic score Mean ± SD,"[1]; 30 μg/kg iv qd × 5, Example 5 (II)",0.17 ± 0.157
same,Pathologic score Mean ± SD,"[1]; 30 μg/kg iv qd × 7, (I)",0.13±0.13
same,Pathologic score Mean ± SD,"[1]; 30 μg/kg iv qd × 7, (I), listed as rhNRG-1β",0.13 ± 0.132
same,Pathologic score Mean ± SD,"[1]; 30 μg/kg iv qd × 7, (II)",0.19 ± 0.168
same,+dp/dt,"[2]; 10 μg/kg iv qd × 10 d, (I)",4875±636 mmHg/s and 4875 mmHg/s
same,LVPmax,"[2]; 10 μg/kg iv qd × 10 d, (I)",145±15.2 mmHg and 145 mmHg
same,LVPmin,"[2]; 10 μg/kg iv qd × 10 d, (I)",−24.5 mmHg
same,−dp/dt,"[2]; 10 μg/kg iv qd × 10 d, (I)",−3672±884 mmHg/s and −3672 mmHg/s
same,+dp/dt,[2]; [7],4875±636 mmHg/s
same,LVPmax,[2]; [7],145±15.2 mmHg
same,−dp/dt,[2]; [7],−3672±884 mmHg/s
same,+dp/dt,"[2]; 10 μg/kg iv qd × 10 d, (II)",4956 mmHg/s
same,LVPmax,"[2]; 10 μg/kg iv qd × 10 d, (II)",158.2 mmHg
same,LVPmin,"[2]; 10 μg/kg iv qd × 10 d, (II)",−22.4 mmHg
same,−dp/dt,"[2]; 10 μg/kg iv qd × 10 d, (II)",−3626 mmHg/s
same,+dp/dt,"[2]; 20 μg/kg iv qd × 10 d, (I)",6107±418 mmHg/s and 6107 mmHg/s
same,LVPmax,"[2]; 20 μg/kg iv qd × 10 d, (I)",156.1±17.7 mmHg and 156.1 mmHg
same,LVPmin,"[2]; 20 μg/kg iv qd × 10 d, (I)",−26.9 mmHg
same,−dp/dt,"[2]; 20 μg/kg iv qd × 10 d, (I)",−4323±457 mmHg/s and −4323 mmHg/s
same,+dp/dt,[2]; [8],6107±418 mmHg/s
same,LVPmax,[2]; [8],156.1±17.7 mmHg
same,−dp/dt,[2]; [8],−4323±457 mmHg/s
same,+dp/dt,"[2]; 20 μg/kg iv qd × 10 d, (II)",5833 mmHg/s
same,LVPmax,"[2]; 20 μg/kg iv qd × 10 d, (II)",157.7 mmHg
same,LVPmin,"[2]; 20 μg/kg iv qd × 10 d, (II)",−26.6 mmHg
same,−dp/dt,"[2]; 20 μg/kg iv qd × 10 d, (II)",−4345 mmHg/s
same,+dp/dt,"[2]; 40 μg/kg iv qd × 10 d, (I)",5954±689 mmHg/s and 5954 mmHg/s
same,LVPmax,"[2]; 40 μg/kg iv qd × 10 d, (I)",165.7±22.7 mmHg and 165.7 mmHg
same,LVPmin,"[2]; 40 μg/kg iv qd × 10 d, (I)",−27.4 mmHg
same,−dp/dt,"[2]; 40 μg/kg iv qd × 10 d, (I)",−4794±954 mmHg/s and −4794 mmHg/s
same,+dp/dt,[2]; [9],5954±689 mmHg/s
same,LVPmax,[2]; [9],165.7±22.7 mmHg
same,−dp/dt,[2]; [9],−4794±954 mmHg/s
same,+dp/dt,"[2]; 40 μg/kg iv qd × 10 d, (II)",6041 mmHg/s
same,LVPmax,"[2]; 40 μg/kg iv qd × 10 d, (II)",166.3 mmHg
same,LVPmin,"[2]; 40 μg/kg iv qd × 10 d, (II)",−22.2 mmHg
same,−dp/dt,"[2]; 40 μg/kg iv qd × 10 d, (II)",−4529 mmHg/s
same,antibody testing,[3],negative results
same,Pathologic scoring,"[4]; 10 μg/kg iv qd × 10 d, (I)",1.83 ± 0.41
same,Pathologic scoring,"[4]; 10 μg/kg iv qd × 10 d, (II)",2.167 ± 0.516
same,Pathologic scoring,"[4]; 20 μg/kg iv qd × 10 d, (I)",1.17 ± 0.93
same,Pathologic scoring,"[4]; 20 μg/kg iv qd × 10 d, (II)",1.667 ± 0.931
same,myocardial pathologic score of the section shown in FIG. 20,[4]; 20 μg/kg testing drug group,1
same,Pathologic scoring,"[4]; 40 μg/kg iv qd × 10, (II)",0.583 ± 0.204
same,Pathologic scoring,"[4]; 40 μg/kg iv qd × 10 d, (I)",0.33 ± 0.41
same,myocardial pathologic score of the section shown in FIG. 20,[4]; 40 μg/kg testing drug group,1
same,myocardial pathologic score of the section shown in FIG. 20,[4]; 130 μg/kg testing drug group (so in the source),1.5
same,survival rate,"[5]; Adriamycin 3.3 mg/kg weekly × 4, 10 μg/kg iv qd 10 days",60%
same,survival rate,"[5]; Adriamycin 3.3 mg/kg weekly × 4, 20 μg/kg iv qd 10 days",90%
same,survival rate,"[5]; Adriamycin 3.3 mg/kg weekly × 4, 40 μg/kg iv qd 10 days",85%
same,EF value,"[6]; 5 μg/kg, after ligation prior to drug administration, long-term monitoring",53.1 ± 12.8%
same,time the changes of ejection fraction maintain after the drug administration,[6]; 20 μg/kg,about 35 days
same,EF value,"[6]; 20 μg/kg, 5-day after drug administration and 35-day after drug withdrawal",73.0 ± 20.3 %

# Source: patent publication US9555076B2, “Neuregulin based methods and compositions for treating cardiovascular diseases” (Zensun (Shanghai) Science & Technology, Co., Ltd., priority 2002, dated 2017)
